# Results reported in patent US20150104808A1 (Janssen / Centocor, published 2015).
# Substitutions are numbered along the chain they refer to.
# B1: ECB38 (designed binder)
# chain: MLPAPKNLVVSEVTEDSARLSWDDPWAFYESFLIQYQESEKVGEAIVLTVPGSERSYDLTGLKPGTEYTVSIYGVHNVYKDTNMRGLPLSAIFTTAPAPAPAPAPLPAPKNLVVSRVTEDSARLSWTAPDAAFDSFWIRYFEFLGSGEAIVLTVPGSERSYDLTGLKPGTEYVVNIMGVKGGKISPPLSAIFTTAPAPAPAPAPLAEAKVLANRELDKYGVSDYYKNLINNAKTVEGVKALLDEILAALP
# B2: ECB147v3-PEG24 (designed binder)
# chain: LPAPKNLVVSEVTEDSARLSWDDPWAFYESFLIQYQESEKVGEAIVLTVPGSERSYDLTGLCPGTEYTVSIYGVHNVYKDTNMRGLPLSAIFTTAPCPAPAPAPLPAPKNLVVSRVTEDSARLSWTAPDAAFDSFWIRYFEFLGSGEAIVLTVPGSERSYDLTGLCPGTEYVVNIMSVKGGSISPPLSAIFTTAPCPAPAPAPLAEAKVLANRELDKYGVSDYYKNLINNAKTVEGVKALLDEILAALP
# modifications: PEG24-maleimide on the engineered cysteines
# B3: ECB147v7-PEG24 (designed binder)
# chain: B2 chain with C62K, C166K
# modifications: PEG24-maleimide on the engineered cysteines
# B4: ECB147v5-PEG24 (designed binder)
# chain: B2 chain with C97A, C196A
# modifications: PEG24-maleimide on the engineered cysteines
# B5: ECB147v6-PEG24 (designed binder)
# chain: B2 chain with C97A, C166K, C196A
# modifications: PEG24-maleimide on the engineered cysteine
# B6: P54CR4-31 (designed binder, not shown: small tags and cut ends)
# chain: LPAPKNLVVSEVTEDSLRLSWTAPDAAFDSFLIQYQESEKVGEAINLTVPGSERSYDLTGLKPGTEYTVSIYGVLGSYVFEHDVMLPLSAEFTT
# B7: P114AR5P74-A5 (designed binder, not shown: small tags and cut ends)
# chain: LPAPKNLVVSRVTEDSARLSWTAPDAAFDSFWIRYDEVVVGGEAIVLTVPGSERSYDLTGLKPGTEYYVNILGVKGGSISVPLSAIFTT
# B8: P114AR7P92-G8 (designed binder, not shown: small tags and cut ends)
# chain: B7 chain with W32V, D36F, V38F, V39L, V40G, G41S, Y68V, N70Q, S78Y, V81I
# B9: P114AR7P94-E5 (designed binder, not shown: small tags and cut ends)
# chain: B7 chain with D36F, V38F, V39L, V40G, G41S, Y68A, L72M, S78R, I79V
# B10: P114AR5P75-E9 (designed binder, not shown: small tags and cut ends)
# chain: B7 chain with W32F, V38F, V39L, V40R, G41S, Y68W, N70T, S78L, I79V, V81T
# B11: P114AR7P93-H9 (designed binder, not shown: small tags and cut ends)
# chain: B7 chain with D36F, V38F, V39L, V40G, G41S, Y68V, N70Q, L72I, S78H, V81L
# B12: P114AR7P94-A3 (designed binder, not shown: small tags and cut ends)
# chain: B7 chain with D36F, V38F, V39L, V40G, G41S, Y68V, L72M, S78K, V81P
# B13: P114AR7P92-F6 (designed binder, not shown: small tags and cut ends)
# chain: B7 chain with D36F, V38F, V39L, V40G, G41S, Y68V, S78G, I79L
# B14: P114AR7P95-F10 (designed binder, not shown: small tags and cut ends)
# chain: B7 chain with D36F, V38F, V39T, V40T, G41A, Y68V, L72M, V81P
# B15: P114AR7P93-G8 (designed binder, not shown: small tags and cut ends)
# chain: LPAPKNLVVSRVTEDSARLSWTAPDAAFDSFWIRYFEFLGSGEAIVLTVPGSERSYDLTDLKPGTEYGVTINGVKGGRVSTPLSAIFTT
# Molecular target: T1, EGFR (epidermal growth factor receptor) on cells (human, UniProt P00533 25-1210)
# Assay: cell-based or functional assay
row,"IC50, inhibition of EGF-stimulated EGFR phosphorylation (Tyr1173) in NCI-H292 [nM]",Binder
1,2.3,B1
2,1.6,B2
3,1.4,B3
4,0.9,B4
5,1.4,B5

# Molecular target: T1, EGFR (epidermal growth factor receptor) …
# Assay: A431 cell binding, anti-His-Alexa488 fluorescence
# Method: A431 cells were plated at 5,000/well in opaque black 96-well plates and allowed to attach overnight at 37° C., in a humidified 5% CO₂ atmosphere. […] Supernatant was removed and cells were washed 3 times with 150 μL/well of FACS stain buffer. Cells were incubated with 50 μL/well of anti-penta His-Alexa488 antibody conjugate (Qiagen) diluted 1:100 in FACS stain buffer for 20 minutes at room temperature. Cells were washed 3 times with 150 μL/well of FACS stain buffer, after which wells were filled with 100 μL of FACS stain buffer and read for fluorescence at 488 nm using an Acumen eX3 reader. Data were plotted as raw fluorescence signal against the logarithm of the FN3 domain molar concentration and fitted to a sigmoidal dose-response curve with variable slope using GraphPad Prism 4 (GraphPad Software) to calculate EC₅₀ values.
row,EC50 [nM],Binder
1,> 20000,B6

# Molecular target: Recombinant human c-Met Fc chimera (human) (UniProt P08581)
# Assay: HGF competition on coated c-Met Fc chimera, competitor biotinylated HGF
row,IC50 [nM],Binder
1,5.2,B7
2,1.6,B8
3,0.7,B9
4,51.9,B10
5,2.9,B11
6,0.2,B12
7,2.2,B13
8,1.4,B14
9,1,B15

# Molecular target: c-Met (hepatocyte growth factor receptor) on cells (human, UniProt P08581 25-1390)
# Assay: cell-based or functional assay
row,"IC50, inhibition of HGF-stimulated c-Met phosphorylation (Tyr1349) in NCI-H292 [nM]",Binder
1,1.3,B1
2,0.5,B2
3,0.5,B3
4,0.4,B4
5,0.4,B5
